According to patent US20210246166A1 (Bayer, published 2021):
Bridge positions count the residues as written; N and C are the ends. Square brackets hold non-standard residues; d marks the D form. Primed or numbered codes have the meaning given here. Ends that are not written are not given here. PEG9(31 atoms) = 1-amino-3,6,9,12,15,18,21,24,27-nonaoxatriacontan-30-oic acid; TTDS(3) = 1,13-Diamino-4,7,10-trioxatridecan-succinamic acid; Pro(3S,4R-methano) = O=C(O)[C@H]1NC[C@@H]2C[C@@H]21; Oic = O=C(O)[C@@H]1C[C@@H]2CCCC[C@@H]2N1; tBuAla = CC(C)(C)C[C@H](N)C(=O)O; PEG5 = NCCOCCOCCOCCOCCOCCC(=O)O; Pen = CC(C)(S)[C@H](N)C(=O)O; PEG3 = NCCOCCOCCOCCC(=O)O; Sar = CNCC(=O)O

T1: recombinant rat MASP1 active protease (amino acids 302-704, C-terminal His Tag) (rat, UniProt Q8CHN8 302-704)
T1 sequence: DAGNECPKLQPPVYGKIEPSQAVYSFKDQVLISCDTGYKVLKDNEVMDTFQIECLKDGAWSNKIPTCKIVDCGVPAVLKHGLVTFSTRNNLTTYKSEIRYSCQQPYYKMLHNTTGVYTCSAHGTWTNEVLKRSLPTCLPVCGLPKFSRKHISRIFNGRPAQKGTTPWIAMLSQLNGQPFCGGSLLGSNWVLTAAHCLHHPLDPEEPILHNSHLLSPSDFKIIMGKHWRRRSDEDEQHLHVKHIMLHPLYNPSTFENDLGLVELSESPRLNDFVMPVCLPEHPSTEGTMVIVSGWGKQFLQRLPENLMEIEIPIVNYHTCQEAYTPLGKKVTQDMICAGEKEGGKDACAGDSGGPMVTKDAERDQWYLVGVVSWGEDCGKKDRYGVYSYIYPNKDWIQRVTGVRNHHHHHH

T2: recombinant human MASP1 active protease (amino acids 297-699, C-terminal His Tag) (human, UniProt P48740 297-699)
T2 sequence: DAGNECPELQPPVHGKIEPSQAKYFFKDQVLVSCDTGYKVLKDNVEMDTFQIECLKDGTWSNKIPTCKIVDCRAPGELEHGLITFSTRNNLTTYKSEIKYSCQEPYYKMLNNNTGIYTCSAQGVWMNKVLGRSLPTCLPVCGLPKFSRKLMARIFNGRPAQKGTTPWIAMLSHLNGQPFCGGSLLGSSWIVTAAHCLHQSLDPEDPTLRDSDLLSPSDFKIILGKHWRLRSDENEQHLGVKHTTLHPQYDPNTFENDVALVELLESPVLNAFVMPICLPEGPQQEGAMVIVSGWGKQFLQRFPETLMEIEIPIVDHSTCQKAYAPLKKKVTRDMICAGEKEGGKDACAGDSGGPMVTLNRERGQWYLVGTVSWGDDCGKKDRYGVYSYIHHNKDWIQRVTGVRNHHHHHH

B1: Example 90: ((N-Me)G)-IC+SRSL-((1S,2S,5R)-3-azabicyclo[3.1.0]hexane-2-carboxylic acid)-PI-(Pen)+IPE-NH2 (peptide)
peptide: [Sar]ICSRSL[Pro(3S,4R-methano)]PI[Pen]IPE-NH2
modifications: disulfide 3-11; N-terminus assumed
SMILES: CC[C@H](C)[C@H](NC(=O)CNC)C(=O)N[C@H]1CSSC(C)(C)[C@@H](C(=O)N[C@H](C(=O)N2CCC[C@H]2C(=O)N[C@@H](CCC(=O)O)C(N)=O)[C@@H](C)CC)NC(=O)[C@H]([C@@H](C)CC)NC(=O)[C@@H]2CCCN2C(=O)[C@@H]2[C@H]3C[C@H]3CN2C(=O)[C@H](CC(C)C)NC(=O)[C@H](CO)NC(=O)[C@H](CCCNC(=N)N)NC(=O)[C@H](CO)NC1=O
B2: Example 109: ((N-Me)G)-IC+SRSLP-(Oic)-I-(Pen)+IP-NH2 (peptide)
peptide: [Sar]ICSRSLP[Oic]I[Pen]IP-NH2
modifications: disulfide 3-11; N-terminus assumed
SMILES: CC[C@H](C)[C@H](NC(=O)CNC)C(=O)N[C@H]1CSSC(C)(C)[C@@H](C(=O)N[C@H](C(=O)N2CCC[C@H]2C(N)=O)[C@@H](C)CC)NC(=O)[C@H]([C@@H](C)CC)NC(=O)[C@@H]2C[C@@H]3CCCC[C@@H]3N2C(=O)[C@@H]2CCCN2C(=O)[C@H](CC(C)C)NC(=O)[C@H](CO)NC(=O)[C@H](CCCNC(=N)N)NC(=O)[C@H](CO)NC1=O
B3: Example 468: ((N-Me)G)-IC+SRSLP-(Oic)-I-(Pen)+IP-(PEG2(13 atoms))-OH (peptide)
peptide: [Sar]ICSRSLP[Oic]I[Pen]IP[PEG3]-OH
modifications: disulfide 3-11; N-terminus assumed
SMILES: CC[C@H](C)[C@H](NC(=O)CNC)C(=O)N[C@H]1CSSC(C)(C)[C@@H](C(=O)N[C@H](C(=O)N2CCC[C@H]2C(=O)NCCOCCOCCOCCC(=O)O)[C@@H](C)CC)NC(=O)[C@H]([C@@H](C)CC)NC(=O)[C@@H]2C[C@@H]3CCCC[C@@H]3N2C(=O)[C@@H]2CCCN2C(=O)[C@H](CC(C)C)NC(=O)[C@H](CO)NC(=O)[C@H](CCCNC(=N)N)NC(=O)[C@H](CO)NC1=O

target: recombinant rat MASP2 active protease (amino acids 296-685, C-terminal His Tag) (rat, UniProt Q9JJS8 296-685); experiment: cell-based or functional assay
Sequence (Q9JJS8 other isoform, or with tags, fused parts or gaps limits assumed): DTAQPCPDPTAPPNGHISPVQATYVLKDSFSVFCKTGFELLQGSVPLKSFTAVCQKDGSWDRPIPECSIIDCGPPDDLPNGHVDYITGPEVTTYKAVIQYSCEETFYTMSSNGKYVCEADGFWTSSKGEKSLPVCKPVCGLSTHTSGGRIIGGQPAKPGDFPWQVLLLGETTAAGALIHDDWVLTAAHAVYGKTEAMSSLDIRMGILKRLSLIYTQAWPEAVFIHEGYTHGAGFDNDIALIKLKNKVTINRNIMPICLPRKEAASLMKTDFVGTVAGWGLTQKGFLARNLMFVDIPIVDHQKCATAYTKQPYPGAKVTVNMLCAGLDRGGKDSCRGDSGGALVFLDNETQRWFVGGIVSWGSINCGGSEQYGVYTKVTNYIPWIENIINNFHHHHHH

| rat MASP2 IC50 [nM] | Binder |
| --- | --- |
| 37 | [Sar]ICSRS[tBuAla]PPI[Pen]IP-{TTDS(3)-NH2} (disulfide 3-11) [Example 85: ((N-Me)G)-IC+SRS-((tBu)A)-PPI-(Pen)+IP-(TTDS)-NH2] |
| 17.4 | AICSRSLP[Oic]I[Pen]IPD-OH (disulfide 3-11; also: HCl salt) [Example 29: AIC+SRSLP-(Oic)-I-(Pen)+IPD-OH (HCl salt)] |
| 55 | B1 |
| 36 | [Sar]ICSRSLP[Oic]I[Pen]IP-NH2 (disulfide 3-11; also: HCl salt) [Example 67: ((N-Me)G)-IC+SRSLP-(Oic)-I-(Pen)+IP-NH2 (HCl salt)] |
| 48 | [Sar]ICSRSLP[Oic]I[Pen]IP-{PEG5‑CH2CO2H (18 atoms)-NH2} (disulfide 3-11) [Example 83: ((N-Me)G)-IC+SRSLP-(Oic)-I-(Pen)+IP-(PEG5-CH2CO2H (18 atoms))-NH2] |
| 51 | [Sar]ICSRSLP[Oic]I[Pen]IP-{PEG5-NH2} (disulfide 3-11) [Example 97: ((N-Me)G)-IC+SRSLP-(Oic)-I-(Pen)+IP-(PEG4(19 atoms))-NH2] |
| 35 | [Sar]ICSRS[tBuAla]PPI[Pen]IP[PEG9(31 atoms)]-NH2 (disulfide 3-11) [Example 44: ((N-Me)G)-IC+SRS-((tBu)A)-PPI-(Pen)+IP-(PEG9(31 atoms))-NH2] |
| 16.4 | AICSRSLP[Oic]I[Pen]IPD-OH (disulfide 3-11; also: TFA salt) [Example 13: AIC+SRSLP-(Oic)-I-(Pen)+IPD-OH] |
| 42 | B2 |
| 80 | B3 |

target: T1, recombinant rat MASP1 active protease …; experiment: cell-based or functional assay

| rat MASP1 IC50 [nM] | Binder |
| --- | --- |
| 75 | [Sar]ICSRS[tBuAla]PPI[Pen]IP-{TTDS(3)-NH2} (disulfide 3-11) [Example 85: ((N-Me)G)-IC+SRS-((tBu)A)-PPI-(Pen)+IP-(TTDS)-NH2] |
| 67 | B1 |
| 72 | [Sar]ICSRSLP[Oic]I[Pen]IP-NH2 (disulfide 3-11; also: HCl salt) [Example 67: ((N-Me)G)-IC+SRSLP-(Oic)-I-(Pen)+IP-NH2 (HCl salt)] |
| 120 | [Sar]ICSRSLP[Oic]I[Pen]IP-{PEG5‑CH2CO2H (18 atoms)-NH2} (disulfide 3-11) [Example 83: ((N-Me)G)-IC+SRSLP-(Oic)-I-(Pen)+IP-(PEG5-CH2CO2H (18 atoms))-NH2] |
| 120 | [Sar]ICSRSLP[Oic]I[Pen]IP-{PEG5-NH2} (disulfide 3-11) [Example 97: ((N-Me)G)-IC+SRSLP-(Oic)-I-(Pen)+IP-(PEG4(19 atoms))-NH2] |
| 87 | [Sar]ICSRS[tBuAla]PPI[Pen]IP[PEG9(31 atoms)]-NH2 (disulfide 3-11) [Example 44: ((N-Me)G)-IC+SRS-((tBu)A)-PPI-(Pen)+IP-(PEG9(31 atoms))-NH2] |
| 76 | B2 |

target: T2, recombinant human MASP1 active protease …; experiment: cell-based or functional assay

| human MASP1 IC50 [nM] | Binder |
| --- | --- |
| 2.7 | AICSRSLP[Oic]I[Pen]IPD-OH (disulfide 3-11; also: choline salt) [Example 432: AIC+SRSLP-(Oic)-I-(Pen)+IPD-OH (choline-salt)] |
